In this assay the target is human FcRn fused to a His-tag and glutathione S transferase (FcRn-His-GST), complex of FcRn heavy chain with beta-2-microglobulin (human) (UniProt P55899). Nature of the assay: AlphaScreen competition.

As to V264A (antibody), the FcRn Binding ratio Variant / WT was 1.12.

For the substance G237W (antibody), the FcRn Binding ratio Variant / WT was 1.2.

For P238H (antibody), the FcRn Binding ratio Variant / WT amounted to 1.46.

In the case of P271S (antibody), the FcRn Binding ratio Variant / WT is 1.14.

Turning to P228K (antibody), the FcRn Binding ratio Variant / WT was found to be 1.55.

As for I332D (antibody), the FcRn Binding ratio Variant / WT was 1.75.

Take G236K (antibody): the FcRn Binding ratio Variant / WT came to 1.38.

For P238F (antibody), the FcRn Binding ratio Variant / WT stood at 2.41.

Turning to T335P (antibody), the FcRn Binding ratio Variant / WT was determined as 1.45.

Turning to L328Q/I332E (antibody), the FcRn Binding ratio Variant / WT came to 4.29.

E233R (antibody): the FcRn Binding ratio Variant / WT was determined as 1.05.

As to G236Q (antibody), the FcRn Binding ratio Variant / WT was determined as 1.46.

E272I (antibody): the FcRn Binding ratio Variant / WT worked out at 1.05.

With E283P (antibody), the FcRn Binding ratio Variant / WT is 1.33.

L234Y (antibody): the FcRn Binding ratio Variant / WT was found to be 1.9.

Turning to L234V (antibody), the FcRn Binding ratio Variant / WT came out at 1.45.

Regarding V282Y (antibody), the FcRn Binding ratio Variant / WT worked out at 1.92.

With L328A (antibody), the FcRn Binding ratio Variant / WT amounted to 1.32.

As to S267L/A327S (antibody), the FcRn Binding ratio Variant / WT was 1.05.

As to P238S (antibody), the FcRn Binding ratio Variant / WT came out at 1.12.

Take L234G (antibody): the FcRn Binding ratio Variant / WT turned out to be 2.54.

For Y296I (antibody), the FcRn Binding ratio Variant / WT amounted to 1.71.

For E233T (antibody), the FcRn Binding ratio Variant / WT was 1.19.

Turning to L234R (antibody), the FcRn Binding ratio Variant / WT turned out to be 1.19.

For Y278N (antibody), the FcRn Binding ratio Variant / WT was found to be 1.33.

As to T335N (antibody), the FcRn Binding ratio Variant / WT amounted to 1.23.

Consider A330F (antibody), for which the FcRn Binding ratio Variant / WT is 25.3.

Regarding D270I (antibody), the FcRn Binding ratio Variant / WT was 1.23.

As to P331Y (antibody), the FcRn Binding ratio Variant / WT came to 6.06.

With E272R (antibody), the FcRn Binding ratio Variant / WT worked out at 1.83.

For the substance S304T (antibody), the FcRn Binding ratio Variant / WT came out at 2.86.

On to F241L/V262I (antibody), for which the FcRn Binding ratio Variant / WT was found to be 1.37.

Regarding V264D (antibody), the FcRn Binding ratio Variant / WT is 7.67.

For L234F (antibody), the FcRn Binding ratio Variant / WT was found to be 1.46.

Turning to N276H (antibody), the FcRn Binding ratio Variant / WT is 1.19.

Turning to D249Y (antibody), the FcRn Binding ratio Variant / WT is 2.57.

Turning to P271I (antibody), the FcRn Binding ratio Variant / WT was found to be 1.99.

Consider P331F (antibody), for which the FcRn Binding ratio Variant / WT was 3.91.

With D265P (antibody), the FcRn Binding ratio Variant / WT came to 1.18.

A330L/I332E (antibody): the FcRn Binding ratio Variant / WT was 1.5.

As to I332H (antibody), the FcRn Binding ratio Variant / WT is 1.24.

As to P329R (antibody), the FcRn Binding ratio Variant / WT is 1.64.

On to E272L (antibody), for which the FcRn Binding ratio Variant / WT was 1.81.

For T335S (antibody), the FcRn Binding ratio Variant / WT was 1.42.

On to E272H (antibody), for which the FcRn Binding ratio Variant / WT came to 1.45.

For S239V (antibody), the FcRn Binding ratio Variant / WT was determined as 1.17.

For the substance T225E (antibody), the FcRn Binding ratio Variant / WT was 4.89.

As for L234E (antibody), the FcRn Binding ratio Variant / WT was found to be 1.25.

In the case of T335W (antibody), the FcRn Binding ratio Variant / WT worked out at 1.35.

As for V240T (antibody), the FcRn Binding ratio Variant / WT was determined as 2.61.

Regarding R301E (antibody), the FcRn Binding ratio Variant / WT was 2.92.

For the substance N286P (antibody), the FcRn Binding ratio Variant / WT amounted to 2.9.

As for P331L (antibody), the FcRn Binding ratio Variant / WT amounted to 1.77.

Turning to G236H (antibody), the FcRn Binding ratio Variant / WT was 1.48.

With K246Y (antibody), the FcRn Binding ratio Variant / WT amounted to 2.47.

In the case of P228G (antibody), the FcRn Binding ratio Variant / WT is 1.77.

Regarding S239E/V264I/I332E (antibody), the FcRn Binding ratio Variant / WT amounted to 2.71.

As to E294G (antibody), the FcRn Binding ratio Variant / WT came out at 1.25.

Take G237L (antibody): the FcRn Binding ratio Variant / WT was 5.91.

On to A330Y/I332E (antibody), for which the FcRn Binding ratio Variant / WT stood at 1.53.

As to E294I (antibody), the FcRn Binding ratio Variant / WT came out at 1.09.

For the substance K274G (antibody), the FcRn Binding ratio Variant / WT is 1.04.

For the substance P238E (antibody), the FcRn Binding ratio Variant / WT came to 3.71.

On to T335H (antibody), for which the FcRn Binding ratio Variant / WT is 1.16.

Consider V264T (antibody), for which the FcRn Binding ratio Variant / WT worked out at 1.66.

Turning to Y300M (antibody), the FcRn Binding ratio Variant / WT turned out to be 1.1.

As for G237N (antibody), the FcRn Binding ratio Variant / WT is 1.39.

As to P329W (antibody), the FcRn Binding ratio Variant / WT was 3.16.

On to E272W (antibody), for which the FcRn Binding ratio Variant / WT is 1.82.

In the case of I332V (antibody), the FcRn Binding ratio Variant / WT worked out at 59.3.

For P227K (antibody), the FcRn Binding ratio Variant / WT was 1.45.

For the substance E272T (antibody), the FcRn Binding ratio Variant / WT was 2.46.

Take E269W (antibody): the FcRn Binding ratio Variant / WT is 1.19.

Turning to E272Y (antibody), the FcRn Binding ratio Variant / WT is 2.08.

Turning to T335F (antibody), the FcRn Binding ratio Variant / WT was found to be 1.19.

Regarding A327D (antibody), the FcRn Binding ratio Variant / WT is 1.01.

R255Y (antibody): the FcRn Binding ratio Variant / WT stood at 12.9.

In the case of F243E (antibody), the FcRn Binding ratio Variant / WT worked out at 1.14.

Consider G236P (antibody), for which the FcRn Binding ratio Variant / WT turned out to be 1.41.

Regarding S239D/E272S/I332E (antibody), the FcRn Binding ratio Variant / WT is 1.49.

Turning to P238V (antibody), the FcRn Binding ratio Variant / WT worked out at 1.43.

On to S239D/K326T/I332E (antibody), for which the FcRn Binding ratio Variant / WT was 2.22.

In the case of T335L (antibody), the FcRn Binding ratio Variant / WT was 1.5.

K274F (antibody): the FcRn Binding ratio Variant / WT is 1.02.

E269P (antibody): the FcRn Binding ratio Variant / WT is 1.23.

As for F243W (antibody), the FcRn Binding ratio Variant / WT amounted to 4.63.

With S324D (antibody), the FcRn Binding ratio Variant / WT turned out to be 1.27.

E233M (antibody): the FcRn Binding ratio Variant / WT is 1.13.

Take Y278L (antibody): the FcRn Binding ratio Variant / WT is 1.74.

On to G236N (antibody), for which the FcRn Binding ratio Variant / WT was determined as 1.89.

Consider Y278D (antibody), for which the FcRn Binding ratio Variant / WT amounted to 1.79.

For S239Q/I332N (antibody), the FcRn Binding ratio Variant / WT was 1.11.

Consider G237K (antibody), for which the FcRn Binding ratio Variant / WT turned out to be 1.47.

In the case of P329K (antibody), the FcRn Binding ratio Variant / WT was 1.27.

Regarding “S239E/V264I/S298A/A330Y/I332E (antibody)”, the FcRn Binding ratio Variant / WT was 10.1.

For the substance H268E (antibody), the FcRn Binding ratio Variant / WT was determined as 1.71.

Consider E233W (antibody), for which the FcRn Binding ratio Variant / WT came out at 1.64.

For Y278S (antibody), the FcRn Binding ratio Variant / WT came out at 1.23.

With K274N (antibody), the FcRn Binding ratio Variant / WT came out at 1.26.

These data come from US20090041770A1.
